Tests used:
[1] = target: BdhE (bifunctional dehydrogenase E) from Halomonas eurihalina (Halomonas eurihalina); assay: native gel or EMSA; blue native PAGE, 3-14% polyacrylamide gradient, 150 V for ~75 minutes; purified AdhE 5 or 10 ug, BdhE 1 or 2 ug
[2] = target: BdhE (bifunctional dehydrogenase E) from Halomonas eurihalina (Halomonas eurihalina); assay: cryo-EM structure; single particle analysis, 2.02 mg/mL AdhE or 1.35 mg/mL BdhE, no cofactors added, Talos Arctica 200 kV, CryoSPARC

stoichiometry N [1]: 4
stoichiometry N [2]: 4
Substance: BdhE (bifunctional dehydrogenase E) from Halomonas eurihalina (enzyme)
